{
  "source": "patent US20250333441A1",
  "about": "“POLYPEPTIDE INHIBITORS AND USES THEREOF” (Neuracle Science Co., Ltd., priority 2021, published 2025)",
  "key": {"[1]": {"tested_on": "mouse primary cortical neurons", "test": "Neurite growth of primary cortical neurons (beta-tubulin III immunostaining)", "format": "cell-based", "details": "0.006 to 60 nM; day 3 post-initial culture; versus DMSO control", "protocol": "Next, primary cortical neurons (day 1 postnatal) were cultured in vitro with varying concentrations (0.006 to 60 nM) of the LRRC4B (453-576) protein fragment (i.e., amino acid residues 453-576 of SEQ ID NO: 2; SEQ ID NO: 7), and then at day 3 post-initial culture, the effect on neurite growth was assessed by immunostaining the cells with anti-beta-tubulin III antibody. Cells cultured with DMSO (“Veh”) were used as control.\nMouse hippocampal neurons were treated with LRRC4B peptides at 1 and 2 DIV to determine neurite growth. It was measured by using 3 different parameters, which are total neurites length, number of primary and secondary neurites. After the neurons were stained with beta-tubulin III at 3 DIV, neurites length and branch points were measured using Fiji (Image J, NIH, Bethesda). Individual neurons were selected by hand and these parameters were counted using the Simple neurite tracer plugin. Mouse spinal motor neurons sampled at postnatal day 1 were treated with 10 nM of NS101 and LRRC4B-peptides (dFB-dWY-JM31 and dFB-DY-JM31) at 1 and 2 DIV and immunostained with Tau-5 antibody at 3 DIV. Total neurite length and number of somas in images were measured by Neurphology Image J plugin."}, "[2]": {"target": "T1, FAM19A5 (isoform 2) - full-length LRRC4B protein complex (Homo sapiens, UniProt Q7Z5A7)", "T1 construct": "expressed in transfected cells; host or cells: HEK293", "T1 sequence (Q7Z5A7 1-125 isoform Q7Z5A7-2, one chain of several)": "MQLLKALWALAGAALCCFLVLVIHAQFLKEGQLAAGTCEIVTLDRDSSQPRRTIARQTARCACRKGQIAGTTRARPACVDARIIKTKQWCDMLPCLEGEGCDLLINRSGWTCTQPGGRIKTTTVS", "test": "Immunofluorescence: dissociation of FAM19A5 from full-length LRRC4B in HEK293 cells", "format": "cell-based", "details": "HEK293 cells expressing FAM19A5 isoform 2 and LRRC4B, treated 30 minutes", "protocol": "Since LRRC4B protein fragments containing the binding domain described in Example 2 (e.g., LRRC4B (453-576); i.e., construct #11 in Table 6) was able to bind to FAM19A5 protein with high affinity, it was next assessed whether such protein fragments could compete with naturally existing LRRC4B protein for binding to FAM19A5 protein, and thereby, dissociate the FAM19A5-LRRC4 protein family complex. Briefly, HEK293 cells expressing both FAM19A5 isoform 2 and LRRC4B protein were treated (i.e., cultured in vitro) for 30 minutes with either LRRC4B (453-576)-hFc or mutant LRRC4B (453-576)-hFc (includes alanine substitutions at positions 488 and 489 of SEQ ID NO: 2; SEQ ID NO: 16) protein fragments. Then, the cells were immunostained with anti-FAM19A5 (1-65) and anti-LRRC4B antibodies to determine the expression of FAM19A5 and full-length LRRC4B proteins, respectively. The hFc-fused LRRC4B protein fragments were determined using an anti-hIgG antibody. The nuclei were stained with Hoechst 33342."}, "[3]": {"tested_on": "APP/PS1 mice (Alzheimer mouse model)", "test": "Synaptic formation in hippocampal CA1 and CA3 of APP/PS1 mice", "format": "in vivo", "details": "30 mg/kg intravenous, four consecutive weeks; compared to mutant LRRC4B protein fragment", "protocol": "FIGS. 16A, 16B, and 16C show the ability of LRRC4B peptide fragment (amino acid residues 453-576 of SEQ ID NO: 2; “WT”) (i.e., SEQ ID NO: 7) to promote synaptic formation in the hippocampal CA1 of APP/PS1 mice. As further described in Example 8, APP/PS1 mice were treated with the LRRC4B peptide fragment (30 mg/kg; intravenous administration) for four consecutive weeks, and then synaptic formation was assessed by fluorescence microscopy using antibodies against SYP and PSD95. Control animals received no treatment (“Cont”) or the mutant LRRC4B peptide fragment […] (i.e., comprising alanine substitutions at positions 488 and 489 of SEQ ID NO: 2; SEQ ID NO: 16). FIG. 16A provides representative fluorescent photomicrographs. FIGS. 16B and 16C show the SYP and PSD95 intensity, respectively.\nFIGS. 17A, 17B, and 17C show the ability of LRRC4B peptide fragment (amino acid residues 453-576 of SEQ ID NO: 2; “WT”; SEQ ID NO: 7) to promote synaptic formation in the hippocampal CA3 of APP/PS1 mice. The animals were treated and analyzed as described in FIGS. 16A-16C. FIG. 17A provides representative fluorescent photomicrographs. FIGS. 17B and 17C show the SYP and PSD95 intensity, respectively.\nAdditionally, to confirm the above effect on neurite outgrowth in vivo, APP/PS1 mice (Alzheimer mouse model) were used. […] Hong et al., Science 352(6286): 712-716 (May 2016). […]"}},
  "data": [
    {"molecule": "LRRC4B (453-576): LRRC4B fragment, amino acids 453-576 of SEQ ID NO: 2 (SEQ ID NO: 7); used hFc-fused (protein, human Fc fusion in use, used hFc-fused) VSAVDPVAAGGTGSGGGGPGGSGGVGGGSGGYTYFTTVTVETLETQPGEEALQPRGTEKEPPGPTTDGVWGGGRPGDAAGPASSSTTAPAPRSSRPTEKAFTVPITDVTENALKDLDDVMKTTK", "values": [
      {"measurement": "neurite growth", "setting": "[1]", "value": "increased neurite growth in a dose-dependent manner"},
      {"measurement": "dissociation of FAM19A5 from full-length LRRC4B protein", "setting": "[2]", "value": "FAM19A5 was largely dissociated from the full-length LRRC4B protein"},
      {"measurement": "SYP and PSD95 immunoreactivities in CA1 and CA3", "setting": "[3]", "value": "increased SYP and PSD95 immunoreactivities"}
    ]}
  ]
}
